From US20200247893A1 (CITY OF HOPE, published 2020)
Each block holds one binder with its values, some of them ahead of it.

Columns and labels:
[1] = target: T1, recombinant human IL1RAP protein (human, UniProt Q9NPH3 21-359, limits assumed); test: ELISA: recombinant IL1RAP protein coated at 1 ug/ml, purified IgG in three-fold serial dilution, HRP-anti-human FC detection, OD450
T1 construct: also called recombinant IL1RAP protein; Interleukin-1 receptor accessory protein

[2] = target: T1, recombinant human IL1RAP protein; test: ELISA; 1 µg/ml recombinant IL1RAP coated; antibody in three-fold dilutions from 1 µg/ml; HRP-anti-human FC detection
Procedure: Purified antibodies in three-fold serial dilution starting from 1 μg/ml are added to each well. HRP-anti-human FC antibody is used as detection antibody.

CD3 on T cells = target: T2, CD3 on T cells (Homo sapiens (Human), UniProt P07766 23-207; P04234 22-171; P09693 23-182; P20963 22-164); test: flow cytometry: T cells incubated with 1D5 in place of the bispecific antibody, then his-tagged recombinant IL1RAP, detection with FITC-anti-his antibody
T2 construct: also called T cell co-receptor CD3
T2 sequence (P07766 23-207 limits assumed, chain 1 of 4): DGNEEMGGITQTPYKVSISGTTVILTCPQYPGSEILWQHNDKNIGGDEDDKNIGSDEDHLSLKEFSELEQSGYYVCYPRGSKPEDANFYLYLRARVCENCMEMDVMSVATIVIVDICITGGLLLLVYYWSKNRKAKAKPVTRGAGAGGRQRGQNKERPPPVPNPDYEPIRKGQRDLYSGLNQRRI
T2 sequence (P04234 22-171 limits assumed, chain 2 of 4): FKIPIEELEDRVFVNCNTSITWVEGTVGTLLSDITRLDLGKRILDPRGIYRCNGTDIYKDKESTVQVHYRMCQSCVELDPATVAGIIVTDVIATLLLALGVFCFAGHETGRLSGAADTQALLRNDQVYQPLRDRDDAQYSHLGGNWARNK
T2 sequence (P09693 23-182 limits assumed, chain 3 of 4): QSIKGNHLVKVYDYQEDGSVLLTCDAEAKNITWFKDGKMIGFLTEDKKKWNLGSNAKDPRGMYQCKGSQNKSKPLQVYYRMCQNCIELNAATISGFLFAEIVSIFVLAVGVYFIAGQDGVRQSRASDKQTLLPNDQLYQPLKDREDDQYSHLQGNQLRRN
T2 sequence (P20963 22-164 limits assumed, chain 4 of 4): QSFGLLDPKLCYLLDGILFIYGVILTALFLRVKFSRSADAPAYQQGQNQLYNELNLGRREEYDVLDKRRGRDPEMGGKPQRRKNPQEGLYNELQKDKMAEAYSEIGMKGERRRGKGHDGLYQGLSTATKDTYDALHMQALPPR

[3] = target: T1, recombinant human IL1RAP protein; test: method not given
[4] = target: T1, recombinant human IL1RAP protein; test: SPR, Biacore T100

T1 sequence (Q9NPH3 21-359 limits assumed): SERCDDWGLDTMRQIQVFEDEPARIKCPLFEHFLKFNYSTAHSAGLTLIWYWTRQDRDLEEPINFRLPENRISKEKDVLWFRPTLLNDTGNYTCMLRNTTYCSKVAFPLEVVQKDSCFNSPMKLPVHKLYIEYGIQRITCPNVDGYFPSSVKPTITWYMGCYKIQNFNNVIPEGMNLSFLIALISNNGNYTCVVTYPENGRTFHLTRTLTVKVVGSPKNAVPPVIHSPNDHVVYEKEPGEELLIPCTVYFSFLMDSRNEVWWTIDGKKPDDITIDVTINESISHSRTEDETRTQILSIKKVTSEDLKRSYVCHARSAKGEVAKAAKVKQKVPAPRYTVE

EC50 (read off the curve) [1]: ~0.1 µg/mL
B1: D1A4 (antibody, V domains shown)
VH: PGPLVQSGAEVKKPGASVKVSCTTSGFPFNMYGFNWVRQAPGQGLEWMGWISAYNGRTNYAQKFQGRVTMTTDTSTSTSYVELESLTSDDTAVYYCARSGKQQLGSAQPLDSWGQGTLIIVSS
VL: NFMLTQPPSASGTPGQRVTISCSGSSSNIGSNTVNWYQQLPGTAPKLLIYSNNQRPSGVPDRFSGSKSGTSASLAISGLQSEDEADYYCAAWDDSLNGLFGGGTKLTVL

EC50 (read off the curve) [1]: ~0.09 µg/mL
B2: 2E12 (antibody, V domains shown)
VH: GGGLVQPGGSLRLSCEASGFTFSRYWMHWVRQAPGKGLVWVSRIHTDGSSISYADSVKGRFTISRDNAKNTLYLQMNSLRAEDTAVYYCARDIGGGYSYGSVDYWGQGTLVTVSS
VL: QPVLTQSPSVSVAPGKTTRITCGGDNIGSKSVHWFQQKPGQAPVLVVFGGGDRPSGIPERFSGSNSGNTATLIISGVEGGDEADYYCQVWDGSTDHYIFGAGTMVTVL

EC50 [2]: 0.0049 µg/mL | binding result (CD3 on T cells): no binding | Kd [3]: ~20 nM | Kd [4]: 21.2 nM
B3: human monoclonal antibody 1D5 (anti-IL1RAP) (antibody, V domains shown)
VH: QVQLVQSGAEVKKPGESLKISCKGSGYSFSSHWIGWVRQMPGKGLEWMGIIYPGDSDTRYSPSFQGQVTISADKSISTAYLQWSSLKASDTAMYYCARGELPGEAYYFDNWGQGTLVTVSS
VL: not shown
notes: also called clone ID5
